# Where two headings read alike, the source gives them in different places.
# B1: BMP-2 (bone morphogenetic protein 2), wild type (ligand, UniProt P12643 283-396, looked up)
# chain: QAKHKQRKRLKSSCKRHPLYVDFSDVGWNDWIVAPPGYHAFYCHGECPFPLADHLNSTNHAIVQTLVNSVNSKIPKACCVPTELSAISMLYLDENEKVVLKNYQDMVVEGCGCR
# B2: His-tagged ΔN-Gremlin-1 (domain or fragment, human, UniProt O60565 72-184, looked up)
# chain: EVLESSQEALHVTERKYLKRDWCKTQPLKQTIHEEGCNSRTIINRFCYGQCNSFYIPRHIRKEEGSFQSCSFCKPKKFTTMMVTLNCPELQPPTKKKRVTRVKQCRCISIDLD
# B3: untagged ΔN-Gremlin-1 (domain or fragment, human, UniProt O60565 72-184, looked up)
# chain: B2 chain
# B4: His-tagged fl-Gremlin-1 (natural protein, human, UniProt O60565 25-184, looked up)
# chain: KKKGSQGAIPPPDKAQHNDSEQTQSPQQPGSRNRGRGQGRGTAMPGEEVLESSQEALHVTERKYLKRDWCKTQPLKQTIHEEGCNSRTIINRFCYGQCNSFYIPRHIRKEEGSFQSCSFCKPKKFTTMMVTLNCPELQPPTKKKRVTRVKQCRCISIDLD
# How the values were obtained:
# [1] = target: His-tagged ΔN-Gremlin-1 (human) (UniProt O60565); assay: BLI
# [2] = target: His-tagged ΔN-Gremlin-1 (human) (UniProt O60565); assay: BLI; remark: listed apart in the source
# [3] = target: His-tagged fl-Gremlin-1 (human) (UniProt O60565); assay: BLI
# [4] = target: His-tagged fl-Gremlin-1 (human) (UniProt O60565); assay: BLI; remark: listed apart in the source
# [5] = target: B4; assay: BLI
# [6] = target: B4; assay: BLI; remark: listed apart in the source
# [7] = target: B1; assay: BLI
# [8] = target: the molecule itself; assay: SEC-MALS
# [9] = target: B1; assay: BLI; remark: listed apart in the source
# [10] = target: B1; assay: BLI; remark: listed apart in the source
# [11] = target: the molecule itself; assay: SEC-SAXS
molecule,measurement,setting,value
"BMP-2 mutant # 3 (49 F → A, 66 L → R) (ligand)",Kd,[1],175 nM
same,Kd,[2],95.9 nM
same,Kd,[3],30.4 nM
"BMP-2 mutant # 6 (90 L→ Q, 92 L → R) (ligand)",Kd,[2],301 nM
BMP-2 mutant # 2 (66 L → R) (ligand),Kd,[4],32.5 nM
same,Kd,[2],44.7 nM
same,Kd,[3],45.9 nM
BMP-2 mutant # 1 (49 F → A) (ligand),Kd,[1],77.8 nM
same,Kd,[2],75.4 nM
same,Kd,[3],66.1 nM
"BMP-2 mutant # 5 (98 V → T, 100 L → N) (ligand)",koff,[1],0.001 s⁻¹
same,Kd,[4],176 nM
same,Kd,[3],176 nM
"BMP-2 mutant # 4 (33 V → T, 34 A → S) (ligand)",Kd,[2],176 nM
same,Kd,[3],47.2 nM
B1,Kd,[5],9 nM
same,koff,[5],0.0018 s⁻¹
same,Kd,[6],5.6 nM
B2,Kd,[7],16.7 nM
same,koff,[7],0.005 s⁻¹
same,stoichiometry N,[8],2
same,Kd,[9],5.2 nM
B3,Kd,[10],8.5 nM
B4,stoichiometry N,[11],2

# From paper PMC4888461 (Biochemical Journal, 2016)
